Data reported in US20250250361A1, “ANTI-PLA2G10 ANTIBODIES AND METHODS OF USE” (Yale University, priority 2022, published 2025).
Entries after “also recorded” stand apart in the source; their conditions may differ.

T1: recombinant human PLA2G10 protein (Origene) (human, UniProt O15496 43-165, limits assumed)
T1 construct: also called rhPLA2G10; hPLA2G10
T1 sequence (looked up): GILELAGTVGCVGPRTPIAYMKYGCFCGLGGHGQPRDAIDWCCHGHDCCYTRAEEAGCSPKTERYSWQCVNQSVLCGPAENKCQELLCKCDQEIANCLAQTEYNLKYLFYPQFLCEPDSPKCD

T2: recombinant human PLA2G10 (rhPLA2G10) (Homo sapiens, UniProt O15496)
T2 sequence (O15496 43-165): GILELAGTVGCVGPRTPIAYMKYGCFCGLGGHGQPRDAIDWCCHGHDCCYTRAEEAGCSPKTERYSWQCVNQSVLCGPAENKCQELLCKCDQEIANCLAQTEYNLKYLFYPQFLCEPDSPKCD

T3: human PLA2G10 (Homo sapiens, UniProt O15496)
T3 construct: purchased Origene
T3 sequence (O15496 43-165): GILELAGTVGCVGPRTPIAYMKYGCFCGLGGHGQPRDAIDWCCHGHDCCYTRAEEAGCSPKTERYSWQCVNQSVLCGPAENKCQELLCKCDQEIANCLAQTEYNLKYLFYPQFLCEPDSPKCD

T4: mouse PLA2G10 (Mus musculus, UniProt Q9QXX3)
T4 construct: NP285
T4 sequence (Q9QXX3 29-151): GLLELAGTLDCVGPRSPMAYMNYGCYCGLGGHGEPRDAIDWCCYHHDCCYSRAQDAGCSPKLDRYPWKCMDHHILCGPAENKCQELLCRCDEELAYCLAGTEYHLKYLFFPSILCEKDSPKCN


Legend:
[1] = test system: T cell migration inhibited by PLA2G10; assay: high throughput T cell mobility assay (TCMA); type: cell-based; details: activated primary human T cells from 3 donors, CXCL11 100 ng/ml
Experimental: A high throughput T cell mobility assay (TCMA) was performed to assess the ability of the antibody clones identified in Example 1 and varespladib (a small molecule PLA2G10 inhibitor) to attenuate the inhibitory effect of PLA2G10 on T cell migration. The TCMA was built by modifying Boyden's two-chamber assay in a 96-well format, in which two chambers were separated by a porous membrane. While activated T cells on the upper chamber are largely held by the membrane, exposure to chemokines allows T cells to transpass the membrane and migrate into the lower chamber. In the assay, HEK293T cells 5×10^4 were seeded in a reservoir plate (the lower chambers) arrayed with human secretory molecule encoding genes and transiently transfected using jetPRIME® transfection reagent (Polyplus transfection) as described previously (Yao et al., (2011) Immunity 34:729-740). After overnight incubation, the culture supernatant was replaced by a fresh migration medium (RPMI-1640 containing 1% fetal calf serum from Atlanta Biologicals) and further cultured for 2-3 days. […] At the end of incubation, the upper chamber was removed, and cells in the lower chambers were collected and stained with AF647-labeled anti-human CD45 mAb (clone 2D1, Biolegend) and numerated by the Mirrorball® plate reader (TPP Labtech). […]

[2] = biological target: T1, recombinant human PLA2G10 protein …; assay: one-way ELISA, plates coated with human PLA2G10 (Origene)
Experimental: (§1) A one-way ELISA was performed to assess antibody binding to PLA2G10. Plates were coated with either human PLA2G10 (Origene) or mouse PLA2G10 (NP285) at 0.5 mg/ml and tested using a PLA2G10 ELISA kit (Elabscience, China) per the manufacturer's instructions. Testing results were normalized as (Vt−Vm)/Vm, where Vt indicates the value calculated according to the standard curve and Vm indicates the mean value of all samples tested on the same ELISA plate.

[3] = biological target: T2, recombinant human PLA2G10 (rhPLA2G10); assay: sPLA2 assay kit, phospholipase enzymatic activity of human PLA2G10; type: biochemical; details: rhPLA2G10 2.5 μg/ml, antibody 25 μg/ml, RT 30 minutes preincubation
Experimental: (§2) The PLA2G10 enzymatic activity for hydrolysis of phospholipids was tested using a sPLA2 assay kit (Cayman Chemical, MI) according to manufacturer's instructions. Briefly, the 1,2-dithio analog of diheptanoyl phosphatidylcholine serves as a substrate for sPLA2s. Upon hydrolysis of the thioester bond at the sn-2 position by PLA2G10, free thiols are detected using DTNB (5,5′-dithio-bis-(2-nitrobenzoic acid)). Recombinant human PLA2G10 protein (rhPLA2G10) (0.5 μg, 2.5 μg/ml final concentration) was incubated with 1C11 antibody (5 μg, 25 μg/ml final concentration) at RT for 30 minutes before testing. Mouse PLA2G10 protein (mPLA2G10-IgFc) (0.32 mg/ml) was incubated with 1C11 or 2B12 antibody (1 mg/ml) at 37° C. for 45 minutes before testing.

HT-29 tumors = assay: HT-29 xenograft tumor model in NSG mice; type: in vivo; details: compared to control
Experimental: FIG. 6A is a graph showing HT29 xenograft tumor growth over time with anti-PLA2G10 antibody 1C11 or control treatment. Data were analyzed by one-way ANOVA. * p<0.01. FIG. 6B is a series of pictures showing 1C11 or control antibody treated tumors at day 37. Tumors were surgically removed, formalin-fixed, and sectioned. Tumor tissue sections were studied by immunohistochemistry using an anti-human CD3 mAb. FIG. 6C is a graph showing quantification of CD3+ T cells in control antibody or 1C11 treated tumors (hpf, high power field x400). Cell numbers of ten […] hpfs were randomly picked in each sample for counting and average cell counts were plotted. Box whisker plots depict the mean, the minimum to the maximum value, and each data point was shown. Data were analyzed by the Mann-Whitney test. * p<0.05.
The human colon adenocarcinoma cell line HT-29 secretes PLA2G10 and forms tumors when inoculated in immunodeficient NSG (NOD scid gamma) mice subcutaneously.

human PLA2G10 = biological target: T3, human PLA2G10; assay: one-way ELISA, antibody binding to human PLA2G10; details: plates coated with human PLA2G10
Experimental: as §1

[4] = test system: mouse PLA2G10 (mPLA2G10-IgFc); assay: sPLA2 assay kit, phospholipase enzymatic activity of mouse PLA2G10; type: biochemical; details: mPLA2G10-IgFc 0.32 mg/ml, antibody 1 mg/ml, 37° C. 45 minutes preincubation
Experimental: as §2

MC38-2G10 tumors = assay: MC38-2G10 syngeneic tumor model; type: in vivo; details: established tumors in mice, antibodies at 6, 11 and 16 days after inoculation
Experimental: FIG. 4 is a graph showing MC38-2G10 tumor growth in mice over time with anti-PLA2G10 antibody 1C11, anti-PD-1 antibody G4, or combined treatment. Mice were treated with antibodies at 6, 11, and 16 days after tumor inoculation. Representative results of two independent experiments are shown as the mean±SEM. Data were analyzed by two-way ANOVA. * p<0.05, ns=not significant.
To investigate the in vivo effects of anti-PLA2G10 antibody 1C11, a tumor cell line, MC38-2G10, was established by lentivirus-mediated gene transduction to stably express murine PLA2G10 homolog.

KPC-2G10 tumors = assay: KPC-2G10 syngeneic tumor model; type: in vivo, mice
Experimental: FIG. 5A is a graph showing KPC-2G10 tumor growth in mice over time with anti-PLA2G10 antibody 1C11, anti-PD-1 antibody G4, or combined treatment. Mice were treated with antibodies at 5, 10, and 15 days (+20-day treatment for 1C11) after tumor inoculation. Representative results of two independent experiments are shown as the mean±SEM. Data were analyzed by one-way ANOVA. FIG. 5B is a graph showing quantification of CD3+T cells by immunohistochemistry staining with an anti-CD3 mAb in the KPC-2G10 tumors with or without 1C11 treatment. Cell numbers of five hpfs were randomly picked in each sample for counting and average cell counts were plotted. Box whisker plots depict the mean, the minimum to the maximum value, and each data point was shown. Data were analyzed by the Mann-Whitney test. * p<0.05.
Similar results were also obtained in another syngeneic mouse model using the KPC pancreatic cancer subline, which has moderate TILs when growing subcutaneously (Sun et al., 2021, Sci Transl Med 4, 127ral37) (FIG. 5A).

mouse PLA2G10 = biological target: T4, mouse PLA2G10; assay: one-way ELISA, antibody binding to mouse PLA2G10; details: plates coated with mouse PLA2G10
Experimental: as §1

[5] = CD3+ T cells by immunohistochemistry

binding result [2] | inhibition of phospholipase enzymatic activity of human PLA2G10 [3] | inhibition of phospholipase enzymatic activity of mouse PLA2G10 [4] | Molecule | reversal of T cell migration inhibited by PLA2G10 [1] | T cell infiltration in HT-29 tumors (HT-29 tumors; [5]) | HT-29 xenograft tumor growth (HT-29 tumors; subcutaneous) | binding to human PLA2G10 protein (human PLA2G10) | MC38-2G10 tumor growth (MC38-2G10 tumors) | T cell infiltration in KPC-2G10 tumors (KPC-2G10 tumors; [5]) | KPC-2G10 tumor growth (KPC-2G10 tumors; syngeneic mice, subcutaneous, antibodies at 5, 10, 15 days) | binding to mouse PLA2G10 protein (mouse PLA2G10)
– | – | – | CCc1c(C(=O)C(N)=O)c2c(OCC(=O)O)cccc2n1Cc1ccccc1 [varespladib, reference compound] | reversed | – | – | – | – | – | – | –
binds | – | – | anti-PLA2G10 antibody 1C11 (mouse IgG2a) (antibody, V domains shown, also called 1C11 antibody; anti-PLA2G10 mAb IC11) VH: QVTLKESGPGILHPSQTLSLTCSFSGFSLNTFGLGVGWVRQPSGKGQEWLAHIWWDDDRYYNPPLKSRLTISKDPSKNQVFLTIPNVNTANTATYYCTQILPHWVAYWGQGTTLTVSS VL: DIQMNQSPSSLSASLGDTITISCHASQNINVWLSWYQQKPGNIPKLLIYKASNLHTGVPSRFSGSGSGTGFTFTISSLQPEDIATYFCQQGQSYPFTFGGGTKLELK | – | – | – | – | – | – | – | –
– | inhibited | inhibited | 1C11: anti-PLA2G10 antibody clone, VH SEQ ID NO: 1, VL SEQ ID NO: 2; binds human and mouse PLA2G10 (antibody, V domains shown) VH: QVTLKESGPGILHPSQTLSLTCSFSGFSLNTFGLGVGWVRQPSGKGQEWLAHIWWDDDRYYNPPLKSRLTISKDPSKNQVFLTIPNVNTANTATYYCTQILPHWVAYWGQGTTLTVSS VL: DIQMNQSPSSLSASLGDTITISCHASQNINVWLSWYQQKPGNIPKLLIYKASNLHTGVPSRFSGSGSGTGFTFTISSLQPEDIATYFCQQGQSYPFTFGGGTKLELK | reversed | promoted T cell infiltration | retarded tumor growth | recognized; also recorded: showed binding | did not induce the regression | promoted T cell infiltration | responded partially | recognized; also recorded: showed binding
